Results published in paper PMC6934326, “A kinase-dependent checkpoint prevents escape of immature ribosomes into the translating pool” (PLoS Biology, 2019).
Values belong to the molecule of their own block, whether it stands above or below them.

Legend:
Nob1 = test: EMSA; details: 40 mM HEPES pH 7.6, 50 mM KCl, 10 mM MgCl2, 10 min at 30 C; trace 32P RNA prefolded at 65 C in 40 mM HEPES pH 7.6, 100 mM KCl, 2 mM MgCl2; 6% acrylamide/THEM …
[1] = biological target: T1, maltose-binding protein (MBP)-Rio1 (Saccharomyces cerevisiae (strain ATCC …, UniProt Q12196)); test: MBP pull-down (amylose resin), Coomassie SDS-PAGE; tested with AMPPNP; Rio1 binds only when Nob1 and Pno1 are both present (with AMPPNP, little to none with ADP)
T1 chain: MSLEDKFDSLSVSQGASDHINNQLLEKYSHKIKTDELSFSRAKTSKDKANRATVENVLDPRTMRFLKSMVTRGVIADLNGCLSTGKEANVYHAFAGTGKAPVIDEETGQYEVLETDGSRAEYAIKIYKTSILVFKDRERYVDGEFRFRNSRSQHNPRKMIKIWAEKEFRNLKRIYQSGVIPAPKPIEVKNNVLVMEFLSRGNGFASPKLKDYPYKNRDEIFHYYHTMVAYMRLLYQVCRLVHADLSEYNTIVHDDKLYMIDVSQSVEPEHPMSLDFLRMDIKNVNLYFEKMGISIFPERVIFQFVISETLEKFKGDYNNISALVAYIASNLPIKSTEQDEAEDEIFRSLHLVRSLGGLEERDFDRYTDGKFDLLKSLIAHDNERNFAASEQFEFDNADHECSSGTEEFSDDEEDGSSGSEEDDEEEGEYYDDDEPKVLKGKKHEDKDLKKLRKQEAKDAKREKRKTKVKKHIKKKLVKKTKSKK

MBP-Pno1 = biological target: T2, MBP-Pno1 (Saccharomyces cerevisiae (strain ATCC …, UniProt Q99216)); test: MBP pull-down (amylose resin), Coomassie SDS-PAGE; tested with AMPPNP; Rio1 binding requires Nob1 as well as Pno1
T2 chain: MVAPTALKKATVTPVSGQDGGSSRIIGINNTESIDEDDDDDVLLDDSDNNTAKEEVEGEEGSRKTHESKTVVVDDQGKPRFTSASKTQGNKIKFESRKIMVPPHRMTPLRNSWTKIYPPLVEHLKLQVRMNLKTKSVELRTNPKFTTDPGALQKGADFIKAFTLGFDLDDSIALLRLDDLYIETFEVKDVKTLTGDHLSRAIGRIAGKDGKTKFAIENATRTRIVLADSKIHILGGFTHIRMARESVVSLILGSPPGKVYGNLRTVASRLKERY

MBP-Nob1 = biological target: T3, MBP-Nob1 (Saccharomyces cerevisiae (strain ATCC …, UniProt Q08444)); test: MBP pull-down (amylose resin), Coomassie SDS-PAGE; tested with AMPPNP; Rio1 binding requires Pno1 as well as Nob1
T3 chain: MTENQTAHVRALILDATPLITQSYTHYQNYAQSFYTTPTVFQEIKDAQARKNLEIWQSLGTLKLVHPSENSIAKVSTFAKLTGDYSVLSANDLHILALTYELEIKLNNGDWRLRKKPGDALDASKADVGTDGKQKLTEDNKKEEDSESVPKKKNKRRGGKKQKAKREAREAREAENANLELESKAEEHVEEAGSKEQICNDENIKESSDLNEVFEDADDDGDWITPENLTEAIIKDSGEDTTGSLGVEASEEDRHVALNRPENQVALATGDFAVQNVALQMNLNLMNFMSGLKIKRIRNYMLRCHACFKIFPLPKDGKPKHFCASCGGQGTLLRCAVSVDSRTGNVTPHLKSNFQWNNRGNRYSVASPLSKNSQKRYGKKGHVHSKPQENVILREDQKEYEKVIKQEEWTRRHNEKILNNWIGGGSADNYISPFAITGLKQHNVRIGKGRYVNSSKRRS

Nob1–Pno1 complex = biological target: T4, Nob1–Pno1 complex (S. cerevisiae, UniProt Q08444 1-459; Q99216 1-274); test: pull-down; 7 μM MBP-tagged protein held on amylose resin, 20 μM untagged protein; 50 mM HEPES pH 7.5, 200 mM NaCl, 5 mM MgCl2, 2 mM AMPPNP; 4 °C; eluted with 50 mM maltose; Coomassie-stained SDS-PAGE; details: both partners purified
T4 construct: Nob1, S. cerevisiae, untagged, as m2; Pno1, S. cerevisiae, untagged, as m3; The two proteins were added together with MBP-Rio1 and preincubated; the complex was not isolated beforehand; also called Nob1 and Pno1
T4 sequence (looked up) 1: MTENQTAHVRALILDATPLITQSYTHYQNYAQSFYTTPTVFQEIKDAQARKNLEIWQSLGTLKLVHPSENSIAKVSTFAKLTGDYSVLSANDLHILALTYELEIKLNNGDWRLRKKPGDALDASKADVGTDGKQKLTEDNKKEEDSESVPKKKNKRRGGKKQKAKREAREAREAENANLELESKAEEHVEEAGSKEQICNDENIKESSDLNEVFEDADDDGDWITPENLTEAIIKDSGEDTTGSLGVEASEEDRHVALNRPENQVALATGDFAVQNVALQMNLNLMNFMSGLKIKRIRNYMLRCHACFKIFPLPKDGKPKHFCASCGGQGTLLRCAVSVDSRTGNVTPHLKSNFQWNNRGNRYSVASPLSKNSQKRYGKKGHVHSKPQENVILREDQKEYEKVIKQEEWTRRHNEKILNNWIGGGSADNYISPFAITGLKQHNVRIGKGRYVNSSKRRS
T4 sequence (looked up) 2: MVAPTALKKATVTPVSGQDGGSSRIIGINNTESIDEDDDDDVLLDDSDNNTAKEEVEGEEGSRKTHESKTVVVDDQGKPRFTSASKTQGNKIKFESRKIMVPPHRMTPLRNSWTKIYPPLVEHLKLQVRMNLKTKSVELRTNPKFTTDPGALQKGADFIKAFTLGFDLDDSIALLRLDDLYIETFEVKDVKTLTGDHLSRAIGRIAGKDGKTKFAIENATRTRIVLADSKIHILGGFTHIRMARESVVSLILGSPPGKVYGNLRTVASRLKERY

Molecule: D-A2 (3'-ITS1 product)
Kd (Nob1): 960 nM

B3: Nob1 (protein)
chain: MTENQTAHVRALILDATPLITQSYTHYQNYAQSFYTTPTVFQEIKDAQARKNLEIWQSLGTLKLVHPSENSIAKVSTFAKLTGDYSVLSANDLHILALTYELEIKLNNGDWRLRKKPGDALDASKADVGTDGKQKLTEDNKKEEDSESVPKKKNKRRGGKKQKAKREAREAREAENANLELESKAEEHVEEAGSKEQICNDENIKESSDLNEVFEDADDDGDWITPENLTEAIIKDSGEDTTGSLGVEASEEDRHVALNRPENQVALATGDFAVQNVALQMNLNLMNFMSGLKIKRIRNYMLRCHACFKIFPLPKDGKPKHFCASCGGQGTLLRCAVSVDSRTGNVTPHLKSNFQWNNRGNRYSVASPLSKNSQKRYGKKGHVHSKPQENVILREDQKEYEKVIKQEEWTRRHNEKILNNWIGGGSADNYISPFAITGLKQHNVRIGKGRYVNSSKRRS
binding result [1]: no binding

Further lines, results first:

binding result [1]: no binding
B1: Pno1 (protein)
chain: MVAPTALKKATVTPVSGQDGGSSRIIGINNTESIDEDDDDDVLLDDSDNNTAKEEVEGEEGSRKTHESKTVVVDDQGKPRFTSASKTQGNKIKFESRKIMVPPHRMTPLRNSWTKIYPPLVEHLKLQVRMNLKTKSVELRTNPKFTTDPGALQKGADFIKAFTLGFDLDDSIALLRLDDLYIETFEVKDVKTLTGDHLSRAIGRIAGKDGKTKFAIENATRTRIVLADSKIHILGGFTHIRMARESVVSLILGSPPGKVYGNLRTVASRLKERY

binding result (MBP-Pno1): no binding
binding result (MBP-Nob1): no binding
binding result (Nob1–Pno1 complex): binds
B2: maltose-binding protein (MBP)-Rio1 (enzyme, S. cerevisiae, UniProt Q12196 1-484, looked up)
chain: MSLEDKFDSLSVSQGASDHINNQLLEKYSHKIKTDELSFSRAKTSKDKANRATVENVLDPRTMRFLKSMVTRGVIADLNGCLSTGKEANVYHAFAGTGKAPVIDEETGQYEVLETDGSRAEYAIKIYKTSILVFKDRERYVDGEFRFRNSRSQHNPRKMIKIWAEKEFRNLKRIYQSGVIPAPKPIEVKNNVLVMEFLSRGNGFASPKLKDYPYKNRDEIFHYYHTMVAYMRLLYQVCRLVHADLSEYNTIVHDDKLYMIDVSQSVEPEHPMSLDFLRMDIKNVNLYFEKMGISIFPERVIFQFVISETLEKFKGDYNNISALVAYIASNLPIKSTEQDEAEDEIFRSLHLVRSLGGLEERDFDRYTDGKFDLLKSLIAHDNERNFAASEQFEFDNADHECSSGTEEFSDDEEDGSSGSEEDDEEEGEYYDDDEPKVLKGKKHEDKDLKKLRKQEAKDAKREKRKTKVKKHIKKKLVKKTKSKK
notes: Rio1, aspartate kinase, S. cerevisiae; cloned into pSV272 as a TEV-cleavable His6-MBP fusion; The tag was not cut off for this form; also called His-MBP-tagged Rio1; His6-MBP fusion protein; source: E. coli Rosetta DE3, purified (Ni-NTA, MonoQ, Superdex200)
